This note sets out measurements from patent publication US20140329320A1 (OBSCHESTVO S OGRANICHENNOI OTVETSTVENNOSTYU TEKHNOPHARMA, published 2014).

This assay deals with T1, chicken ovalbumin protein (chicken, UniProt P01012 2-386).
T1 construct: Immobilized in wells as negative control of the MIF assay; also called nonspecific protein; negative control
T1 sequence: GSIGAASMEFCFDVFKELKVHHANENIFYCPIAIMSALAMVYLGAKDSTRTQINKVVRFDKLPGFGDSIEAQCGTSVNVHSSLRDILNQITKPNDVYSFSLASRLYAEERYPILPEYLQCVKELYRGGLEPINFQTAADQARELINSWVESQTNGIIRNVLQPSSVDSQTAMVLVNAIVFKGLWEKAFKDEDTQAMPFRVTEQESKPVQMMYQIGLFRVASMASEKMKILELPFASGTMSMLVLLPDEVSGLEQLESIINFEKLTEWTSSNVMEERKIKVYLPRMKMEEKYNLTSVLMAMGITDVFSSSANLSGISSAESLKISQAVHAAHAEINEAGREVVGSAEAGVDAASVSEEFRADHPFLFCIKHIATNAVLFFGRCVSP
Kind of assay: microimmunofluorescence (MIF) on immobilized antigen, anti-HA and FITC secondary detection.

B1: aCt1 nanoantibody (VHH)
VHH: QVQLVESGGGSVQAGGSLRLSCTTSHYVASNSCMAWFRQAPGKKREGVASISRRADITFYADSVKERFVISRDNSERTLYLQMNSLKPEDTAMYYCAADLSYCGLTEEGYNHWGQGTQVTVSS
notes: also called single domain nanoantibody aCt1
Regarding B1, the binding result was “no binding (tested: 10 µ/ml)”.

B2: aCt2 nanoantibody (VHH)
VHH: QVQLVESGGGSVQAGGSLRLHCASSGYVEARILMGWFRQAPGKEREGVAAIYIGDGTTDYGDSVKGRFTVSQDGAKNAIYLHMYDVKPEDAATYYCAAGIMPWYRTWSGRLNVGDFDSWGQGTQVTVSS
notes: also called single domain nanoantibody aCt2
With B2, the binding result was “no binding (tested: 10 µ/ml)”.
